Data: doi:10.1101/2020.10.02.323899

Assays:
[1] = target: actin from Xenopus laevis oocytes (Xenopus laevis (endogenous in oocytes)) (UniProt O93400); assay: SEC-MALS + AUC
[2] = target: Xenopus cyclase-associated protein 1 (Xenopus laevis (endogenous in oocytes)); assay: SEC-MALS + AUC

stoichiometry N (XCAP1 per actin (4:4)) [1]: 1
stoichiometry N (XCAP1 molecules in the complex) [2]: 4
Substance: Xenopus cyclase-associated protein 1 (natural protein)
